Measured values as given in PMC8522838 (2021).

B1: SmBiT-MYC 1-190 [human] / TRRAP 2033-2283-LgBiT [not stated] (parent complex)
chain 1: MPLNVSFTNRNYDLDYDSVQPYFYCDEEENFYQQQQQSELQPPAPSEDIWKKFELLPTPPLSPSRRSGLCSPSYVAVTPFSLRGDNDGGGGSFSTADQLEMVTELLGGDMVNQSFICDPDDETFIKNIIIQDCMWSGFSAAAKLVSEKLASYQAARKDSGSPNPARGHSVCSTSSLYLQDLSAAASECID
chain 2: NSSGEGVNSVSSSIKRGLSVDSAQEVKRFRTATGAISAVFGRSQSLPGADSLLAKPIDKQHTDTVVNFLIRVACQVNDNTNTAGSPGEVLSRRCVNLLKTALRPDMWPKSELKLQWFDKLLMTVEQPNQVNYGNICTGLEVLSFLLTVLQSPAILSSFKPLQRGIAACMTCGNTKVLRAVHSLLSRLMSIFPTEPSTSSVASKYEELECLYAAVGKVIYEGLTNYEKATNANPSQLFGTLMILKSACSNNP

Variants of: B1
Experiment: luminescence complementation (NanoBiT) in transfected cells; normalized for MYC expression level; parent: 100; read off a plot

Row | Variant | percent of parent
1 | chain 1 S136A | ~77 % RLU to WT
2 | chain 1 W135A | ~35 % RLU to WT
3 | chain 1 F138A | ~24 % RLU to WT
4 | chain 1 T58I | ~102 % RLU to WT
5 | chain 1 M134A | ~43 % RLU to WT
